Laboratory results: the array DNA melting data of Ke et al.

assay: melting temperature; melt of duplexes; conditions: sodium 0.0675 M; strand 1 µM

Substance	Tm
CGACGTGCGAAATGTGCTG+CAGCACATTACGCACGTCG (((((((((.(((((((((+))))))))).)))))))))	58.6 °C
CGACGTGCGAAATGTGCTG+CAGCACATTGAGCACGTCG ((((((((..(((((((((+)))))))))..))))))))	61.3 °C
CGACGTGCGAAATGTGCTG+CAGCACATTGCGCACGTCG (((((((((.(((((((((+))))))))).)))))))))	60.2 °C
CGACGTGCGAAATGTGCTG+CAGCACATTGTGCACGTCG ((((((((..(((((((((+)))))))))..))))))))	52.4 °C
CGACGTGCGAAATGTGCTG+CAGCACATTTAGCACGTCG ((((((((.((((((((((+)))))))))).))))))))	57.9 °C
CGACGTGCGAAATGTGCTG+CAGCACATTTGGCACGTCG ((((((((.((((((((((+)))))))))).))))))))	57.3 °C
CGACGTGCGACATGTGCTG+CAGCACATAATGCACGTCG ((((((((...((((((((+))))))))...))))))))	50.8 °C
CGACGTGCGACATGTGCTG+CAGCACATACAGCACGTCG ((((((((...((((((((+))))))))...))))))))	53.1 °C
CGACGTGCGACATGTGCTG+CAGCACATACGGCACGTCG ((((((((...((((((((+))))))))...))))))))	48.8 °C
CGACGTGCGACATGTGCTG+CAGCACATAGGGCACGTCG ((((((((...((((((((+))))))))...))))))))	50 °C
CGACGTGCGACATGTGCTG+CAGCACATATGGCACGTCG ((((((((.(.((((((((+)))))))).).))))))))	50.2 °C
CGACGTGCGACATGTGCTG+CAGCACATATTGCACGTCG ((((((((.(.((((((((+)))))))).).))))))))	51.5 °C
CGACGTGCGACATGTGCTG+CAGCACATCAGGCACGTCG ((((((((...((((((((+))))))))...))))))))	49 °C
CGACGTGCGACATGTGCTG+CAGCACATCATGCACGTCG ((((((((...((((((((+))))))))...))))))))	49.1 °C
CGACGTGCGACATGTGCTG+CAGCACATCGAGCACGTCG ((((((((...((((((((+))))))))...))))))))	54.8 °C
CGACGTGCGACATGTGCTG+CAGCACATCGCGCACGTCG (((((((((..((((((((+))))))))..)))))))))	54.1 °C
CGACGTGCGACATGTGCTG+CAGCACATCGTGCACGTCG ((((((((...((((((((+))))))))...))))))))	47.6 °C
CGACGTGCGACATGTGCTG+CAGCACATCTAGCACGTCG ((((((((.(.((((((((+)))))))).).))))))))	51.5 °C
CGACGTGCGACATGTGCTG+CAGCACATGCGGCACGTCG ((((((((..(((((((((+)))))))))..))))))))	54.4 °C
CGACGTGCGACATGTGCTG+CAGCACATGGGGCACGTCG ((((((((..(((((((((+)))))))))..))))))))	58.4 °C
CGACGTGCGACATGTGCTG+CAGCACATGTTGCACGTCG ((((((((.((((((((((+)))))))))).))))))))	60.9 °C
CGACGTGCGACATGTGCTG+CAGCACATTAAGCACGTCG ((((((((...((((((((+))))))))...))))))))	53.3 °C
CGACGTGCGACATGTGCTG+CAGCACATTCGGCACGTCG ((((((((...((((((((+))))))))...))))))))	51.9 °C
CGACGTGCGACATGTGCTG+CAGCACATTGCGCACGTCG (((((((((..((((((((+))))))))..)))))))))	55.3 °C
CGACGTGCGACATGTGCTG+CAGCACATTTGGCACGTCG ((((((((.(.((((((((+)))))))).).))))))))	50.6 °C
CGACGTGCGACATGTGCTG+CAGCACATTTTGCACGTCG ((((((((.(.((((((((+)))))))).).))))))))	51.4 °C

Substance	Tm
CGACGTGCGAGATGTGCTG+CAGCACATAAGGCACGTCG ((((((((...((((((((+))))))))...))))))))	51.1 °C
CGACGTGCGAGATGTGCTG+CAGCACATACGGCACGTCG ((((((((...((((((((+))))))))...))))))))	50.1 °C
CGACGTGCGAGATGTGCTG+CAGCACATAGGGCACGTCG ((((((((...((((((((+))))))))...))))))))	50.7 °C
CGACGTGCGAGATGTGCTG+CAGCACATAGTGCACGTCG ((((((((...((((((((+))))))))...))))))))	47.6 °C
CGACGTGCGAGATGTGCTG+CAGCACATATCGCACGTCG ((((((((((.((((((((+)))))))).))))))))))	60.4 °C
CGACGTGCGAGATGTGCTG+CAGCACATATGGCACGTCG ((((((((.(.((((((((+)))))))).).))))))))	53.3 °C
CGACGTGCGAGATGTGCTG+CAGCACATATTGCACGTCG ((((((((.(.((((((((+)))))))).).))))))))	54.4 °C
CGACGTGCGAGATGTGCTG+CAGCACATCCAGCACGTCG ((((((((..(((((((((+)))))))))..))))))))	56.5 °C
CGACGTGCGAGATGTGCTG+CAGCACATCCCGCACGTCG (((((((((.(((((((((+))))))))).)))))))))	60.3 °C
CGACGTGCGAGATGTGCTG+CAGCACATCCGGCACGTCG ((((((((..(((((((((+)))))))))..))))))))	55.7 °C
CGACGTGCGAGATGTGCTG+CAGCACATCGAGCACGTCG ((((((((..(((((((((+)))))))))..))))))))	64.5 °C
CGACGTGCGAGATGTGCTG+CAGCACATCTAGCACGTCG ((((((((.((((((((((+)))))))))).))))))))	59.7 °C
CGACGTGCGAGATGTGCTG+CAGCACATCTCGCACGTCG (((((((((((((((((((+)))))))))))))))))))	66.5 °C
CGACGTGCGAGATGTGCTG+CAGCACATCTTGCACGTCG ((((((((.((((((((((+)))))))))).))))))))	60.2 °C
CGACGTGCGAGATGTGCTG+CAGCACATGAAGCACGTCG ((((((((...((((((((+))))))))...))))))))	55.4 °C
CGACGTGCGAGATGTGCTG+CAGCACATGCAGCACGTCG ((((((((...((((((((+))))))))...))))))))	53.7 °C
CGACGTGCGAGATGTGCTG+CAGCACATGCCGCACGTCG (((((((((..((((((((+))))))))..)))))))))	55.4 °C
CGACGTGCGAGATGTGCTG+CAGCACATGCGGCACGTCG ((((((((...((((((((+))))))))...))))))))	50.4 °C
CGACGTGCGAGATGTGCTG+CAGCACATGCTGCACGTCG ((((((((...((((((((+))))))))...))))))))	50.4 °C
CGACGTGCGAGATGTGCTG+CAGCACATGGGGCACGTCG ((((((((...((((((((+))))))))...))))))))	51.1 °C
CGACGTGCGAGATGTGCTG+CAGCACATGTCGCACGTCG ((((((((((.((((((((+)))))))).))))))))))	60.6 °C
CGACGTGCGAGATGTGCTG+CAGCACATGTTGCACGTCG ((((((((.(.((((((((+)))))))).).))))))))	54.3 °C
CGACGTGCGAGATGTGCTG+CAGCACATTACGCACGTCG (((((((((..((((((((+))))))))..)))))))))	55.4 °C
CGACGTGCGAGATGTGCTG+CAGCACATTCTGCACGTCG ((((((((...((((((((+))))))))...))))))))	52.9 °C
CGACGTGCGAGATGTGCTG+CAGCACATTGTGCACGTCG ((((((((...((((((((+))))))))...))))))))	49.7 °C
CGACGTGCGAGATGTGCTG+CAGCACATTTAGCACGTCG ((((((((.(.((((((((+)))))))).).))))))))	53.3 °C
